Columns and labels:
Test in all cases: cell-based or functional assay
[1] = biological target: TSHR with Asp232 mutated to Ala expressed in CHO cells (human) (UniProt P16473)
[2] = biological target: TSHR with Arg274 mutated to Ala, expressed in CHO cells (human) (UniProt P16473)
[3] = biological target: TSHR with Ser281 mutated to Ala, expressed in CHO cells (human) (UniProt P16473)
[4] = biological target: TSHR with Glu178 mutated to Ala expressed in CHO cells (human) (UniProt P16473)
[5] = biological target: TSHR with Glu157 mutated to Ala, expressed in CHO cells (human) (UniProt P16473)

**Q.** What does the source list for TSH (ligand)?
**A.** Cyclic AMP produced, mutated TSHR, TSH 1 ng/mL (Experiment 1) [1]: 31.9 pmol/mL; Cyclic AMP produced, mutated TSHR, TSH 1 ng/mL (Experiment 2) [1]: 44.4 pmol/mL; Cyclic AMP produced, mutated TSHR, TSH 3 ng/mL (Experiment 1) [1]: 41 pmol/mL; Cyclic AMP produced, mutated TSHR, TSH 3 ng/mL (Experiment 2) [1]: 62 pmol/mL; Mutated/Wild type (%) of cyclic AMP produced, TSH 0.01 ng/mL, Experiment 1 [1]: 83%; Mutated/Wild type (%) of cyclic AMP produced, TSH 0.01 ng/mL, Experiment 2 [1]: 62%; Mutated/Wild type (%) of cyclic AMP produced, TSH 0.03 ng/mL, Experiment 1 [1]: 88%; Mutated/Wild type (%) of cyclic AMP produced, TSH 0.03 ng/mL, Experiment 2 [1]: 83%; Mutated/Wild type (%) of cyclic AMP produced, TSH 0.1 ng/mL, Experiment 1 [1]: 87%; Mutated/Wild type (%) of cyclic AMP produced, TSH 0.1 ng/mL, Experiment 2 [1]: 84%; Mutated/Wild type (%) of cyclic AMP produced, TSH 0.3 ng/mL, Experiment 1 [1]: 80%; Mutated/Wild type (%) of cyclic AMP produced, TSH 0.3 ng/mL, Experiment 2 [1]: 75%; Mutated/Wild type (%) of cyclic AMP produced, TSH 1 ng/mL, Experiment 1 [1]: 70%; Mutated/Wild type (%) of cyclic AMP produced, TSH 1 ng/mL, Experiment 2 [1]: 60%; Mutated/wild type (%) of cyclic AMP produced; TSH 3 ng/mL; Experiment 1 [1]: 66%; Mutated/wild type (%) of cyclic AMP produced; TSH 3 ng/mL; Experiment 2 [1]: 64%; Cyclic AMP produced (pmol/mL), TSH 0.01 ng/mL, Experiment 1 [2]: 1.97 pmol/mL; Cyclic AMP produced (pmol/mL), TSH 0.01 ng/mL, Experiment 2 [2]: 1.37 pmol/mL; Cyclic AMP produced (pmol/mL), TSH 0.03 ng/mL, Experiment 1 [2]: 4.14 pmol/mL; Cyclic AMP produced (pmol/mL), TSH 0.03 ng/mL, Experiment 2 [2]: 2.94 pmol/mL; Cyclic AMP produced (pmol/mL), TSH 0.1 ng/mL, Experiment 1 [2]: 9.38 pmol/mL; Cyclic AMP produced (pmol/mL), TSH 0.1 ng/mL, Experiment 2 [2]: 8.29 pmol/mL; Cyclic AMP produced (pmol/mL), TSH 0.3 ng/mL, Experiment 1 [2]: 27.3 pmol/mL; Cyclic AMP produced (pmol/mL), TSH 0.3 ng/mL, Experiment 2 [2]: 25.5 pmol/mL; Cyclic AMP produced (pmol/mL), TSH 1 ng/mL, Experiment 1 [2]: 67.6 pmol/mL; Cyclic AMP produced (pmol/mL), TSH 1 ng/mL, Experiment 2 [2]: 58.5 pmol/mL; Cyclic AMP produced (pmol/mL), TSH 3 ng/mL, Experiment 1 [2]: 98.8 pmol/mL; Cyclic AMP produced (pmol/mL), TSH 3 ng/mL, Experiment 2 [2]: 73.2 pmol/mL; Mutated/Wild type (%), TSH 0.01 ng/mL, Experiment 1 [2]: 106%; Mutated/Wild type (%), TSH 0.01 ng/mL, Experiment 2 [2]: 55%; Mutated/Wild type (%), TSH 0.03 ng/mL, Experiment 1 [2]: 125%; Mutated/Wild type (%), TSH 0.03 ng/mL, Experiment 2 [2]: 57%; Mutated/Wild type (%), TSH 0.1 ng/mL, Experiment 1 [2]: 64%; Mutated/Wild type (%), TSH 0.1 ng/mL, Experiment 2 [2]: 61%; Mutated/Wild type (%), TSH 0.3 ng/mL, Experiment 1 [2]: 56%; Mutated/Wild type (%), TSH 0.3 ng/mL, Experiment 2 [2]: 64%; Mutated/Wild type (%), TSH 1 ng/mL, Experiment 1 [2]: 74%; Mutated/Wild type (%), TSH 1 ng/mL, Experiment 2 [2]: 79%; Mutated/Wild type (%), TSH 3 ng/mL, Experiment 1 [2]: 83%; Mutated/Wild type (%), TSH 3 ng/mL, Experiment 2 [2]: 82%; % inhibition of TSH stimulation; TSH (2) (run at the end of assay, against the first TSH sample); Experiment 1 [3]: 19%; % inhibition of TSH stimulation; TSH (2) (run at the end of assay, against the first TSH sample); Experiment 2 [3]: 4%; Cyclic AMP produced (pmol/mL), TSH 0.01 ng/mL, mutated TSHR [3]: 2.84 pmol/mL; Cyclic AMP produced (pmol/mL), TSH 0.03 ng/mL, mutated TSHR [3]: 4.69 pmol/mL; Cyclic AMP produced (pmol/mL), TSH 0.1 ng/mL, mutated TSHR [3]: 11.3 pmol/mL; Cyclic AMP produced (pmol/mL), TSH 0.3 ng/mL, mutated TSHR [3]: 27.5 pmol/mL; Cyclic AMP produced (pmol/mL), TSH 1 ng/mL, mutated TSHR [3]: 51.6 pmol/mL; Cyclic AMP produced (pmol/mL), TSH 3 ng/mL, mutated TSHR [3]: 68 pmol/mL; Mutated/Wild type (%), TSH 0.01 ng/mL [3]: 140%; Mutated/Wild type (%), TSH 0.03 ng/mL [3]: 128%; Mutated/Wild type (%), TSH 0.1 ng/mL [3]: 117%; Mutated/Wild type (%), TSH 0.3 ng/mL [3]: 88%; Mutated/Wild type (%), TSH 1 ng/mL [3]: 85%; Mutated/Wild type (%), TSH 3 ng/mL [3]: 82%; Mutated/wild type (%) of cyclic AMP produced; test sample TSH (3 ng/mL); Experiment 1 [3]: 79%; Mutated/wild type (%) of cyclic AMP produced; test sample TSH (3 ng/mL); Experiment 2 [3]: 92%; Mutated/wild type (%) of cyclic AMP produced; test sample TSH (2) (3 ng/mL, run at the end of assay); Experiment 1 [3]: 57%; Mutated/wild type (%) of cyclic AMP produced; test sample TSH (2) (3 ng/mL, run at the end of assay); Experiment 2 [3]: 79%; Mutated/Wild type (%) of cyclic AMP produced, TSH 0.01 ng/mL [4]: 467%; Mutated/Wild type (%) of cyclic AMP produced, TSH 0.03 ng/mL [4]: 240%; Mutated/Wild type (%) of cyclic AMP produced, TSH 0.1 ng/mL [4]: 115%; Mutated/Wild type (%) of cyclic AMP produced, TSH 0.3 ng/mL [4]: 71%; Mutated/Wild type (%) of cyclic AMP produced, TSH 1 ng/mL [4]: 54%; Mutated/Wild type (%) of cyclic AMP produced, TSH 0.01 ng/mL [5]: 450%; Mutated/Wild type (%) of cyclic AMP produced, TSH 0.03 ng/mL [5]: 328%; Mutated/Wild type (%) of cyclic AMP produced, TSH 0.1 ng/mL [5]: 164%; Mutated/Wild type (%) of cyclic AMP produced, TSH 0.3 ng/mL [5]: 118%; Mutated/Wild type (%) of cyclic AMP produced, TSH 1 ng/mL [5]: 86%; Mutated/wild type (%) of cyclic AMP produced; TSH 3 ng/mL [5]: 115%

Reference: US20110300138A1 (published 2011)
